Measured values taken from publication PMC7826279 (Nucleic Acids Research, 2021).

T1: Sty1-His (S. pombe, UniProt Q09892 1-349)
T1 sequence (looked up): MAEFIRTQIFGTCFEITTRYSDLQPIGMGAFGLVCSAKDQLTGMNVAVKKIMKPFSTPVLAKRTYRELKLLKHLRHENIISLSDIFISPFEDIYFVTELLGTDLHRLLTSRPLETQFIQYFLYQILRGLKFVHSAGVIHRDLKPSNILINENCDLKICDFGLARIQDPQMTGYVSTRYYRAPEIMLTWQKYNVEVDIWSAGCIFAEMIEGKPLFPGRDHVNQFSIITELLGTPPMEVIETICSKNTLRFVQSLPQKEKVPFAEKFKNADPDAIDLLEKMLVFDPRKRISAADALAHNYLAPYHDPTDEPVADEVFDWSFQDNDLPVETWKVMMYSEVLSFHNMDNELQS

T2: Sty1 (K49R)-His (S. pombe, UniProt Q09892 1-349, K49R)
T2 sequence (looked up): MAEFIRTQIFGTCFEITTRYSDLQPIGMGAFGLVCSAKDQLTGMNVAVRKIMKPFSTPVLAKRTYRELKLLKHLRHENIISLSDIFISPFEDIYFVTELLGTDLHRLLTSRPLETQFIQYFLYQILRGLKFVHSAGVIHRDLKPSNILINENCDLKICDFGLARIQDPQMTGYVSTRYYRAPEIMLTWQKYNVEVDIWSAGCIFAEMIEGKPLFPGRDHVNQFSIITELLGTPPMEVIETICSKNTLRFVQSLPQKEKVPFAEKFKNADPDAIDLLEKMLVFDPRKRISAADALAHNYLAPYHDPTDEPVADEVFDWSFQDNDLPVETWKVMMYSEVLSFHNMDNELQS

T3: Ssu72-His (S. pombe, UniProt O42868 1-197)
T3 sequence (looked up): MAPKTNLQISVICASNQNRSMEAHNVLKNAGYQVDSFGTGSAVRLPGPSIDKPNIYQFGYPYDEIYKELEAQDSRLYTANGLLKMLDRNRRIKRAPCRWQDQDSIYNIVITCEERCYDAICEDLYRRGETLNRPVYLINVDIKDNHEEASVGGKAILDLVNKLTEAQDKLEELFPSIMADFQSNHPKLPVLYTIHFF


What was measured:
Test in all cases: pull-down
Sty1-His = target: T1, Sty1-His
Sty1 (K49R)-His = target: T2, Sty1 (K49R)-His
phosphorylated CTD-GFP = phosphorylated CTD-GFP (S. pombe, UniProt P36594 1549-1751, phosphorylated (sites not told for this preparation))
Chain of phosphorylated CTD-GFP (P36594 1549-1751): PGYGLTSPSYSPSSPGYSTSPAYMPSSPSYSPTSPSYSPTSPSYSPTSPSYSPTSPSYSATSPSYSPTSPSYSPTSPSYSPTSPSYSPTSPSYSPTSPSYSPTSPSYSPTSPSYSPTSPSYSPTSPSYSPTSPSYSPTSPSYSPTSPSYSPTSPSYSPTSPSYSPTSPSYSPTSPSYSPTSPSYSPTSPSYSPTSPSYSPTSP

Ssu72-His = target: T3, Ssu72-His

binding result (Sty1-His)	binding result (Sty1 (K49R)-His)	binding result (phosphorylated CTD-GFP)	binding result (Ssu72-His)	Binder
binds	binds	–	–	GST-Rpb1-CTD (domain or fragment) not shown
–	–	binds	binds	Pin1-GST (natural protein, S. pombe, UniProt O74448 1-175, looked up) MSNTGLPKPWIVKISRSRNRPYFFNTETHESLWEPPAATDMAALKKFIANELQESVTPTEASNSPKIRASHLLVKHRESRRPSSWKEEHITRSKEEARKLAEHYEQLLKSGSVSMHDLAMKESDCSSARRGGELGEFGRDEMQKPFEDAAFALKPGEISGVVETSSGFHIIQRHA
–	–	binds	–	Pin1 (S79E)-GST (natural protein, S. pombe, UniProt O74448 1-175, looked up) MSNTGLPKPWIVKISRSRNRPYFFNTETHESLWEPPAATDMAALKKFIANELQESVTPTEASNSPKIRASHLLVKHREERRPSSWKEEHITRSKEEARKLAEHYEQLLKSGSVSMHDLAMKESDCSSARRGGELGEFGRDEMQKPFEDAAFALKPGEISGVVETSSGFHIIQRHA
